B1: BTB/POZ domain-containing protein 3 (Schizosaccharomyces pombe (strain ATCC 38366 / 972)), Q10225 (parent)
chain: MASQDQNTGTTHVELQGGENSKKLFSKYDLWSKAMDEKKLSSSLFTVNDTQEFLELCEACRRGDLEVVKSLVENYNTPINQVDQFDYSPLVLASLCGHEPVVKFLLENGALCERDTFQGERCLYGALNDNIRRMLLSYDITKAIDESQPYASHITSLLSNSALHFTTDIVFAGQYGRVFAHKFYLAARSSYFKSKFSKLGPSEHEIEVKHFAKEFESILRYLYLDTNAVFTKQYNNALLSIGKKFQLNDFIALYEKDREQLHSRDWKKIQLAKTQNDLGEFLDYIISNYKVPIESLNQPSDQYSFHDAYLQSYTHRYPVHRAIMCRCEYFLDMLAGPFLESNQELPVLSLPFSSSVVEIVLKFLYTDKTDIAPELALDVVYVADMLSLDKDRSLKSLASIVITKQEEPIDSIYDILRTAWDTSTPRLEQYASEYMANHLEHLIDDPEFCELVKESADRILQRQETDTIELIDDIRYFLSKRFGIYHEDLCIDGVVDTLTPYESEYNQKMEMIDDLLDKLELQA
partner: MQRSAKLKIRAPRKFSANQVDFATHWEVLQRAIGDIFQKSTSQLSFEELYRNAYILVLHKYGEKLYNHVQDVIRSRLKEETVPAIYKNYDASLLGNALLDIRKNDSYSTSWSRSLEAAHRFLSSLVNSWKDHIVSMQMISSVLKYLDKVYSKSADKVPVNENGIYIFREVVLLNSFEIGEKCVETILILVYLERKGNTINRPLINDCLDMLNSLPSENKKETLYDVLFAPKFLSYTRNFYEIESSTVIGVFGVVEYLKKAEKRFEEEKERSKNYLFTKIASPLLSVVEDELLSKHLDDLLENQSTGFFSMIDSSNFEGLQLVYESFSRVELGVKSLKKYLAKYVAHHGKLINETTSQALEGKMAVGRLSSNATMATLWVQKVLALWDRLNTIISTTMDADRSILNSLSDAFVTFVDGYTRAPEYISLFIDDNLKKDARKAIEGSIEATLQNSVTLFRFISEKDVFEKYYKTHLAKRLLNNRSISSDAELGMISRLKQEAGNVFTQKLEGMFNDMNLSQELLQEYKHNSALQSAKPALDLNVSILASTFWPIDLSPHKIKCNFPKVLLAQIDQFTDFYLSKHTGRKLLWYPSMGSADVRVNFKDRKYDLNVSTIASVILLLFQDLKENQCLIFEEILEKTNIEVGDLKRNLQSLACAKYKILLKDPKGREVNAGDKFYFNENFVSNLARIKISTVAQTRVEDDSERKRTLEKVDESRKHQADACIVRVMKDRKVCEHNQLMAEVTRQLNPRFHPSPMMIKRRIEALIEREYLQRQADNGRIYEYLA
B2: Cullin-3 (Schizosaccharomyces pombe (strain ATCC 38366 / 972)), Q09760 (parent)
chain: B1 partner
partner: B1 chain

Variants of: B1
Conditions: with cul3_schpo cul3, Q09760

Question: Which “effect of a mutation on the interaction” value does the source give for D168A here?
Answer: The value was “disrupting interaction”.

Question: H181L was tested. Which “effect of a mutation on the interaction” value did it give?
Answer: Its value is “disrupting interaction”.

Variants of: B2
Conditions: with btb3_schpo btb3, Q10225

Question: How did the “effect of a mutation on the interaction” value turn out when Y50G was run?
Answer: The value was “disrupting interaction”.

Source: IntAct's records for PubMed 14527422
